This note sets out measurements from PMC2112662.

The assay has as its target type IV (basement membrane) collagen of Np cells (Peak II) (mouse (endogenous in Np fibrosarcoma cells)). The experiment in a line: radioligand binding.

Turning to “laminin (from the EHS (Engelbreth-Holm-Swarm) sarcoma) (from UniProt P19137 25-3083; P02469 22-1786; P02468 34-1607) (complex)”, the laminin specifically bound (cpm) at 50 ng 125I-laminin added is 0 cpm and the laminin specifically bound (cpm) at 500 ng 125I-laminin added came to 9250 cpm.
